The target in data set [1] is T1, HaCS (HaTPS2) (Helianthus annuus, UniProt Q4U3F6).
T1 sequence (Q4U3F6 1-555): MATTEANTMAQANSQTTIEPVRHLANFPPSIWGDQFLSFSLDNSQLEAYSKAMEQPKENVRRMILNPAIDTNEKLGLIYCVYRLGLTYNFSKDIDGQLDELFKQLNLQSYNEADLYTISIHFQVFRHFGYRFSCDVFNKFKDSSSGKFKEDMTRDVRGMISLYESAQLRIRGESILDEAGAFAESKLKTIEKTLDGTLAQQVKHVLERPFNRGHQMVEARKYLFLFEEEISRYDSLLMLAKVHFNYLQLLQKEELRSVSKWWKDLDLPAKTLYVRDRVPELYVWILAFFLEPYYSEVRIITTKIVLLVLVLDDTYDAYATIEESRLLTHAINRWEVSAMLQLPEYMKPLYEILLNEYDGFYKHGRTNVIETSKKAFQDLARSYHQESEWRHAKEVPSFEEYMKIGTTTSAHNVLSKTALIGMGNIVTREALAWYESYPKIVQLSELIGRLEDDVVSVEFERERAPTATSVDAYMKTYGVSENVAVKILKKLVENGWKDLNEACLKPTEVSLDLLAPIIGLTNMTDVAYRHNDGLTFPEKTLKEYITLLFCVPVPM
Kind of data set: GC-MS of products after incubation with FDP. It is filed as biochemical. More on the design: gene CS; N-terminal thioredoxin fusion (E. coli, Ni-NTA; also S. cerevisiae EPY300), and unfused in yeast. The note with it: thioredoxin fusion, 50 μM FDP, MgCl2 and MnCl2, pH 7.0, 30°C.

For data set [2], the target named is T1, HaCS (HaTPS2). The data set is described as follows: GC-MS of dodecane overlay, expression in S. cerevisiae EPY300. The data set is classed as cell-based. Set-up: gene CS. The following applies: FDP-overproducing yeast; HaCS and thioredoxin-HaCS.
Substrate in data set [3]: CC(C)=CCC/C(C)=C/CC/C(C)=C/CO[P@@](=O)(O)OP(=O)(O)O
Kind of data set: purified protein. It is filed as biochemical, Helianthus annuus. The following applies: 15 mM MOPSO, 10 mM MgCl2, 1 mM MnCl2, pH 7.0 (assay buffer), 30°C, FPP 0.125 to 30 μM.

For `CC(C)=CCC/C(C)=C/CC/C(C)=C/COP(=O)(O)OP(=O)(O)O` [FPP], the “GC-MS of products after incubation with FDP” value in data set [1] is “in vitro enzyme assay products with substrate FDP showed the presence of the parental mass”.
In the case of `CC1=C[C@@H]2C(=C(C)CC[C@H]2C(C)C)CC1` [δ-cadinene], the “GC-MS of dodecane overlay, expression in S. cerevisiae EPY300” value in data set [2] is on record as “One of the two main products was identified as δ-cadinene”.

B1: HaGAS1 (HaTPS1a; native, thioredoxin removed) (Helianthus annuus) (protein)
chain: MAAVGASATPLTNTKSTAEPVRPVANFPPSVWGDLFLSFSLDKSIMEEYAEAMEEPKEQVRRLILDPTMDSNKKLSLIYTVHRLGLTYMFLKEIEAQLDRLFKEFNLEDYVELDLYTISINFQAFRHLGYKLPCDVFNKFKNDDSTTFKESITGDVRGMLGLYESAQLRLKGENILDEASAFAETKLKSLVNTLEGSLAQQVKQSLRRPFHQGMPMVEARLYFSNYQEECSAHDSILKLAKLHFNYLQLQQKEELRIVSQWWKDMRFQETTPYIRDRVPEIYLWILGLYFEPRYSLARIIATKITLFLVVLDDTYDAYATIEEIRLLTDAINRWDISAMNQIPEYIRPFYKILLDEYAELEKQLAKEGRANSVIASKEAFQDIARGYLEEAEWTNSGYVASFPEYMKNGLITSAYNVISKSALVGMGEIVSEDALVWYESHPQILQASELISRLQDDVMTYQFERERGQSATGVDSYIKTYGVSEKVAIDELKKMIENAWKEINEGCLKPREVSMDLLAPILNLARMIDVVYRYDDGFTFPGKTLKEYITLLFVGSSPM
notes: expressed in E. coli from pET-32 EK/LIC, thioredoxin part removed by enterokinase
Usually Km stands for the substrate concentration at which the rate is half of its maximum. With B1, the Km in data set [3] is 0.82 µM.

B2: thioredoxin-HaGAS1 fusion protein (Helianthus annuus) (protein)
chain: B1 chain
notes: full length (559 residues) with uncleaved N-terminal thioredoxin and 6x-His tag (pET-32 EK/LIC), E. coli, Ni-NTA purified
For the molecule B2, in data set [3], the Km came to 1.06 µM.

B3: HaGAS2 (HaTPS1b; native, thioredoxin removed) (Helianthus annuus) (protein)
chain: MAAVGASATLLTNTKSAEEPVRPVANFPPSVWGDLFLSFSLDNSMMEEYAEAMEEPKGQVRKLILDPTMDSNKKLSLIYTVHRLGLTYMFFKEIEGQLDRLFKEFNLEDYVEVDLYTISTNFQAFRHLGYKLSCDVFNKFKNYDSNTFKESITSDVRGMLGLYESAQLRLKGEKILDEASAFTETKLKSLVKTLEGSLAQQVKQSLKRPFHQGMPMVEARLYFSNYQEECSRHDSLLKLAKLHFNYLQLQQKEELRIVSQWWKDMRFQETTPYIRDRVPEIYLWILGLYFEPRYSLARIIATKITLFLVVLDDTYDAYATIEEVRLLTDAINRWDIGAMSQIPEYIRPFYKILLDEYAELEKQLAKEGRANSVIASKEAFQDIARGYLEEAEWTNSGYVASFPEYMKNGLITSAYNVISKSALVGMGEIVSEDALAWYESHPQILQASELISRLQDDVMTYQFERERGQSATGVDAYIKTYGVSEKEAIDELKKMIENAWKEINEGCLKPREVSMDLLAPILNLARMIDVVYRYDDGFTFPGKTLKEYITLLFVGSSPM
notes: full length, 559 residues; expressed in E. coli from pET-32 EK/LIC, thioredoxin part removed by enterokinase
Take B3: the Km in data set [3] came out at 0.74 µM.

The record behind these values is publication PMC2715020, “Identification, functional characterization and developmental regulation of sesquiterpene synthases from sunflower capitate glandular trichomes” (BMC Plant Biology, 2009).
